Experimental data from the supplement of paper PMC5998384.

Columns and labels:
[1] = system: HeLa Kyoto; assay: melting temperature (median over replicates), in situ; higher = more thermally stable
[2] = system: HeLa Kyoto; assay: thermal stability score vs G1/S (z-score of summed log2 fold changes over temperatures); higher = more thermally stable than in G1/S
[3] = system: HeLa Kyoto; assay: solubility in G1/S (NP-40 vs SDS abundance) (log2 ratio); higher = more soluble; details: cell cycle stage: G1/S
[4] = system: HeLa Kyoto; assay: solubility change mitosis vs G1/S (difference of NP-40 vs SDS log2 ratios) (log2 ratio difference); higher = more soluble in mitosis
[5] = cell cycle stage: early G1 (4.5 h after nocodazole release)
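Throughout, for melting temperature (median over replicates), in situ: HeLa Kyoto cells synchronized by double thymidine or nocodazole block, proteins quantified by TMT10plex mass spectrometry, three independent biological replicates.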
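Throughout, for solubility change mitosis vs G1/S (difference of NP-40 vs SDS log2 ratios): synchronized HeLa Kyoto cells (double thymidine block for G1/S, nocodazole release for mitosis), protein amounts in NP-40 versus SDS lysates quantified by mass spectrometry, three biological replicates.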
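Throughout, for solubility in G1/S (NP-40 vs SDS abundance): HeLa Kyoto cells arrested at G1/S by double thymidine block, proteins quantified by TMT10plex mass spectrometry in mild NP-40 versus SDS extracts, three biological replicates.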
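Throughout, for thermal stability score vs G1/S (z-score of summed log2 fold changes over temperatures): synchronized HeLa Kyoto cells, proteins quantified by TMT10plex mass spectrometry, three biological replicates, mitosis taken 0.5 h after nocodazole release, G1/S directly after double thymidine block.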

Sequence of RHOC (chain, as listed by the source): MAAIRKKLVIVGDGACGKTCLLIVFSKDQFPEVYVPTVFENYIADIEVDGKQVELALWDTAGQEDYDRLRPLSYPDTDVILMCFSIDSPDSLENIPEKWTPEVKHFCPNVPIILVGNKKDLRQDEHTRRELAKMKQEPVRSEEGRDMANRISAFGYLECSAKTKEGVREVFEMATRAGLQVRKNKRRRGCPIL

**Q.** Which results are given for “MAQRHSDSSLEEKLLGHRFHSELRLDAGGNPASGLPMVRGSPRVRDDAAFQPQVPAPPQPRPPGHEEPWPIVLSTESPAALKLGTQQLIPKSLAVASKAKTPARHQSFGAAVLSREAARRDPKLLPAPSFSLDDMDVDKDPGGMLRRNLRNQSYRAAMKGLGKPGGQGDAIQLSPKLQALAEEPSQPHTRSPAKNKKTLGRKRGHKGSFKDDPQLYQEIQERGLNTSQESDDDILDESSSPEGTQKVDATIVVKSYRPAQVTWSQLPEVVELGILDQLSTEERKRQEAMFEILTSEFSYQHSLSILVEEFLQSKELRATVTQMEHHHLFSNILDVLGASQRFFEDLEQRHKAQVLVEDISDILEEHAEKHFHPYIAYCSNEVYQQRTLQKLISSNAAFREALREIERRPACGGLPMLSFLILPMQRVTRLPLLMDTLCLKTQGHSERYKAASRALKAISKLVRQCNEGAHRMERMEQMYTLHTQLDFSKVKSLPLISASRWLLKRGELFLVEETGLFRKIASRPTCYLFLFNDVLVVTKKKSEESYMVQDYAQMNHIQVEKIEPSELPLPGGGNRSSSVPHPFQVTLLRNSEGRQEQLLLSSDSASDRARWIVALTHSERQWQGLSSKGDLPQVEITKAFFAKQADEVTLQQADVVLVLQQEDGWLYGERLRDGETGWFPEDFARFITSRVAVEGNVRRMERLRVETDV [ARHGEF16]”?
**A.** melting temperature ([1]; cell cycle stage: G1/S): 49.4 °C; melting temperature ([1]; cell cycle stage: mitosis): 49.5 °C; thermal stability score [2, 5]: 0.0138; thermal stability score ([2]; cell cycle stage: mitosis): 0.41; solubility in G1/S (log2) [3]: -0.0605; solubility change mitosis (log2) [4]: -0.0697

**Q.** How did the melting temperature ([1]; cell cycle stage: G1/S) turn out when “MTPPRLFWVWLLVAGTQGVNDGDMRLADGGATNQGRVEIFYRGQWGTVCDNLWDLTDASVVCRALGFENATQALGRAAFGQGSGPIMLDEVQCTGTEASLADCKSLGWLKSNCRHERDAGVVCTNETRSTHTLDLSRELSEALGQIFDSQRGCDLSISVNVQGEDALGFCGHTVILTANLEAQALWKEPGSNVTMSVDAECVPMVRDLLRYFYSRRIDITLSSVKCFHKLASAYGARQLQGYCASLFAILLPQDPSFQMPLDLYAYAVATGDALLEKLCLQFLAWNFEALTQAEAWPSVPTDLLQLLLPRSDLAVPSELALLKAVDTWSWGERASHEEVEGLVEKIRFPMMLPEELFELQFNLSLYWSHEALFQKKTLQALEFHTVPFQLLARYKGLNLTEDTYKPRIYTSPTWSAFVTDSSWSARKSQLVYQSRRGPLVKYSSDYFQAPSDYRYYPYQSFQTPQHPSFLFQDKRVSWSLVYLPTIQSCWNYGFSCSSDELPVLGLTKSGGSDRTIAYENKALMLCEGLFVADVTDFEGWKAAIPSALDTNSSKSTSSFPCPAGHFNGFRTVIRPFYLTNSSGVD [LGALS3BP]” was run?
**A.** 54.5 °C

**Q.** And the melting temperature ([1]; cell cycle stage: mitosis)?
**A.** 55.9 °C

**Q.** And the thermal stability score [2, 5]?
**A.** 1.36

**Q.** What about the thermal stability score ([2]; cell cycle stage: mitosis) of the same substance?
**A.** 2.15

**Q.** What about the “solubility in G1/S (log2)” value [3] of the same substance?
**A.** -0.0572

**Q.** What about the “solubility change mitosis (log2)” value [4] of the same substance?
**A.** -0.127

**Q.** What does the source list for RHOC?
**A.** melting temperature ([1]; cell cycle stage: G1/S): 53.8 °C; melting temperature ([1]; cell cycle stage: mitosis): 54.8 °C; thermal stability score [2, 5]: -0.123; thermal stability score ([2]; cell cycle stage: mitosis): -1.75; solubility in G1/S (log2) [3]: 0.0468; solubility change mitosis (log2) [4]: -0.013

**Q.** Which melting temperature ([1]; cell cycle stage: G1/S) does the source give for “MGHPPLLPLLLLLHTCVPASWGLRCMQCKTNGDCRVEECALGQDLCRTTIVRLWEEGEELELVEKSCTHSEKTNRTLSYRTGLKITSLTEVVCGLDLCNQGNSGRAVTYSRSRYLECISCGSSDMSCERGRHQSLQCRSPEEQCLDVVTHWIQEGEEGRPKDDRHLRGCGYLPGCPGSNGFHNNDTFHFLKCCNTTKCNEGPILELENLPQNGRQCYSCKGNSTHGCSSEETFLIDCRGPMNQCLVATGTHEPKNQSYMVRGCATASMCQHAHLGDAFSMNHIDVSCCTKSGCNHPDLDVQYRSGAAPQPGPAHLSLTITLLMTARLWGGTLLWT [PLAUR]” here?
**A.** 52.8 °C

**Q.** And the melting temperature ([1]; cell cycle stage: mitosis)?
**A.** 56.2 °C

**Q.** And the thermal stability score [2, 5]?
**A.** 0.197

**Q.** And the thermal stability score ([2]; cell cycle stage: mitosis)?
**A.** 4.92

**Q.** And the “solubility in G1/S (log2)” value [3]?
**A.** 0.19

**Q.** What about the “solubility change mitosis (log2)” value [4] of the same substance?
**A.** -0.232

**Q.** For “MALLVLGLVSCTFFLAVNGLYSSSDDVIELTPSNFNREVIQSDSLWLVEFYAPWCGHCQRLTPEWKKAATALKDVVKVGAVDADKHHSLGGQYGVQGFPTIKIFGSNKNRPEDYQGGRTGEAIVDAALSALRQLVKDRLGGRSGGYSSGKQGRSDSSSKKDVIELTDDSFDKNVLDSEDVWMVEFYAPWCGHCKNLEPEWAAAASEVKEQTKGKVKLAAVDATVNQVLASRYGIRGFPTIKIFQKGESPVDYDGGRTRSDIVSRALDLFSDNAPPPELLEIINEDIAKRTCEEHQLCVVAVLPHILDTGAAGRNSYLEVLLKLADKYKKKMWGWLWTEAGAQSELETALGIGGFGYPAMAAINARKMKFALLKGSFSEQGINEFLRELSFGRGSTAPVGGGAFPTIVEREPWDGRDGELPVEDDIDLSDVELDDLGKDEL [PDIA6]”, which melting temperature ([1]; cell cycle stage: G1/S) is on record?
**A.** 55.1 °C

**Q.** And the melting temperature ([1]; cell cycle stage: mitosis)?
**A.** 56.2 °C

**Q.** And the thermal stability score [2, 5]?
**A.** 4.84

**Q.** And the thermal stability score ([2]; cell cycle stage: mitosis)?
**A.** 4.76

**Q.** What about the “solubility in G1/S (log2)” value [3] of the same substance?
**A.** 0.44

**Q.** And the “solubility change mitosis (log2)” value [4]?
**A.** -0.1

**Q.** What does the source list for CSPG4?
**A.** melting temperature ([1]; cell cycle stage: G1/S): 54.8 °C; melting temperature ([1]; cell cycle stage: mitosis): 55 °C; thermal stability score [2, 5]: -3.28; thermal stability score ([2]; cell cycle stage: mitosis): 0.175; solubility in G1/S (log2) [3]: 0.0261; solubility change mitosis (log2) [4]: 0.0955

**Q.** For “MAAAVVLAAGLRAARRAVAATGVRGGQVRGAAGVTDGNEVAKAQQATPGGAAPTIFSRILDKSLPADILYEDQQCLVFRDVAPQAPVHFLVIPKKPIPRISQAEEEDQQLLGHLLLVAKQTAKAEGLGDGYRLVINDGKLGAQSVYHLHIHVLGGRQLQWPPG [HINT2]”, which melting temperature ([1]; cell cycle stage: G1/S) is on record?
**A.** 54.9 °C

**Q.** What about the melting temperature ([1]; cell cycle stage: mitosis) of the same substance?
**A.** 54.9 °C

**Q.** What about the thermal stability score [2, 5] of the same substance?
**A.** -0.929

**Q.** What about the thermal stability score ([2]; cell cycle stage: mitosis) of the same substance?
**A.** -2.12

**Q.** And the “solubility in G1/S (log2)” value [3]?
**A.** 0.565

**Q.** What about the “solubility change mitosis (log2)” value [4] of the same substance?
**A.** -0.0342

**Q.** Which results are given for “MEGLVVAAGGDVSLHNFSARLWEQLVHFHVMRLTDSLFLWVGATPHLRNLAVAMCSRYDSIPVSTSLLGDTSDTTSTGLAQRLARKTNKQVFVSYNLQNTDSNFALLVENRIKEEMEAFPEKF [PSMG4]”?
**A.** melting temperature ([1]; cell cycle stage: G1/S): 57.5 °C; melting temperature ([1]; cell cycle stage: mitosis): 54.1 °C; thermal stability score [2, 5]: -0.165; thermal stability score ([2]; cell cycle stage: mitosis): -2.02; solubility in G1/S (log2) [3]: 0.14; solubility change mitosis (log2) [4]: -0.0112

**Q.** What does the source list for “MAAVVVAAAGGAGPAVLQVAGLYRGLCAVRSRALGLGLVSPAQLRVFPVRPGSGRPEGGADSSGVGAEAELQANPFYDRYRDKIQLLRRSDPAAFESRLEKRSEFRKQPVGHSRQGDFIKCVEQKTDALGKQSVNRGFTKDKTLSSIFNIEMVKEKTAEEIKQIWQQYFAAKDTVYAVIPAEKFDLIWNRAQSCPTFLCALPRREGYEFFVGQWTGTELHFTALINIQTRGEAAASQLILYHYPELKEEKGIVLMTAEMDSTFLNVAEAQCIANQVQLFYATDRKETYGLVETFNLRPNEFKYMSVIAELEQSGLGAELKCAQNQNKT [ATPAF1]”?
**A.** melting temperature ([1]; cell cycle stage: G1/S): 51.4 °C; melting temperature ([1]; cell cycle stage: mitosis): 51.5 °C; thermal stability score [2, 5]: 1.88; thermal stability score ([2]; cell cycle stage: mitosis): 1.83; solubility in G1/S (log2) [3]: 0.199; solubility change mitosis (log2) [4]: -0.00439

**Q.** With KIAA1429 as the substance, how does the melting temperature ([1]; cell cycle stage: G1/S) read?
**A.** 47.9 °C

**Q.** And the melting temperature ([1]; cell cycle stage: mitosis)?
**A.** 50.4 °C

**Q.** What about the thermal stability score [2, 5] of the same substance?
**A.** 0.289

**Q.** What about the thermal stability score ([2]; cell cycle stage: mitosis) of the same substance?
**A.** 0.336

**Q.** And the “solubility in G1/S (log2)” value [3]?
**A.** -0.435

**Q.** And the “solubility change mitosis (log2)” value [4]?
**A.** 0.17

**Q.** For “MKPSGEDQAALAAGPWEECFQAAVQLALRAGQIIRKALTEEKRVSTKTSAADLVTETDHLVEDLIISELRERFPSHRFIAEEAAASGAKCVLTHSPTWIIDPIDGTCNFVHRFPTVAVSIGFAVRQELEFGVIYHCTEERLYTGRRGRGAFCNGQRLRVSGETDLSKALVLTEIGPKRDPATLKLFLSNMERLLHAKAHGVRVIGSSTLALCHLASGAADAYYQFGLHCWDLAAATVIIREAGGIVIDTSGGPLDLMACRVVAASTREMAMLIAQALQTINYGRDDEK [IMPA2]”, which melting temperature ([1]; cell cycle stage: G1/S) is on record?
**A.** 58.2 °C

**Q.** What about the melting temperature ([1]; cell cycle stage: mitosis) of the same substance?
**A.** 60.1 °C

**Q.** And the thermal stability score [2, 5]?
**A.** -0.528

**Q.** What about the thermal stability score ([2]; cell cycle stage: mitosis) of the same substance?
**A.** -0.16

**Q.** And the “solubility in G1/S (log2)” value [3]?
**A.** 0.109

**Q.** And the “solubility change mitosis (log2)” value [4]?
**A.** -0.261

**Q.** How did the melting temperature ([1]; cell cycle stage: G1/S) turn out when “MIWYILIIGILLPQSLAHPGFFTSIGQMTDLIHTEKDLVTSLKDYIKAEEDKLEQIKKWAEKLDRLTSTATKDPEGFVGHPVNAFKLMKRLNTEWSELENLVLKDMSDGFISNLTIQRQYFPNDEDQVGAAKALLRLQDTYNLDTDTISKGNLPGVKHKSFLTAEDCFELGKVAYTEADYYHTELWMEQALRQLDEGEISTIDKVSVLDYLSYAVYQQGDLDKALLLTKKLLELDPEHQRANGNLKYFEYIMAKEKDVNKSASDDQSDQKTTPKKKGVAVDYLPERQKYEMLCRGEGIKMTPRRQKKLFCRYHDGNRNPKFILAPAKQEDEWDKPRIIRFHDIISDAEIEIVKDLAKPRLRRATISNPITGDLETVHYRISKSAWLSGYENPVVSRINMRIQDLTGLDVSTAEELQVANYGVGGQYEPHFDFARKDEPDAFKELGTGNRIATWLFYMSDVSAGGATVFPEVGASVWPKKGTAVFWYNLFASGEGDYSTRHAACPVLVGNKWVSNKWLHERGQEFRRPCTLSELE [P4HA1]” was run?
**A.** 55.3 °C

**Q.** And the melting temperature ([1]; cell cycle stage: mitosis)?
**A.** 54.1 °C

**Q.** What about the thermal stability score [2, 5] of the same substance?
**A.** 3.59

**Q.** What about the thermal stability score ([2]; cell cycle stage: mitosis) of the same substance?
**A.** 6.2

**Q.** What about the “solubility in G1/S (log2)” value [3] of the same substance?
**A.** 0.216

**Q.** And the “solubility change mitosis (log2)” value [4]?
**A.** -0.0564
